Laboratory results taken from paper PMC12516131.
pKd: −log10 of the molar value.

Legend:
[1] = target: eGFP–POK2^2083–2440 (Arabidopsis thaliana); test: native gel or EMSA; blue native PAGE, 4–12% Tris-Glycine gels, 100 ng of each protein per lane, anti-GFP western blotting and silver staining; oligomeric state in solution
[2] = target: GMPCPP- and paclitaxel-stabilised microtubules (porcine brain tubulin) (porcine (brain tubulin)); test: single-molecule TIRF microscopy on microtubules; 2 nM eGFP–POK2^2083–2771 in PEM20-based Reaction Buffer on unlabelled stabilised microtubules (IRM); kymographs, landing rate and interaction times of diffusive particles
[3] = target: GMPCPP- and paclitaxel-stabilised microtubules (porcine brain tubulin) (porcine (brain tubulin)); test: TIRF microscopy microtubule binding assay; 10% rhodamine-labelled GMPCPP/paclitaxel microtubules immobilised on glass by anti-β-tubulin antibody; eGFP–POK2 fragment at increasing concentrations in PEM20-based Reaction Buffer (20 mM K-PIPES pH 6.9, 1 mM MgCl2, 1 mM EGTA, casein, 1 mM ATP, 5 mM DTT); intensity per microtubule length; Hill–Langmuir fit

stoichiometry N [1] | interaction time (subpopulation 1) [2] [s] | interaction time (subpopulation 2) [2] [s] | interaction time (subpopulation 3) [2] [s] | landing rate at 2 nM [2] [µm^−1 min^−1] | pKd [3] | Substance
2 | – | – | – | – | – | eGFP–POK2^2083–2440 (domain or fragment)
– | 0.9 | 6 | 43 | 0.16 | 6.97 | eGFP–POK2^2083–2771–8×His (domain or fragment)
